# Reference: US20160091489
# Like-named read-outs stand apart in the source and are kept apart here.
# Legend:
# [1] = test system: Ramos cell surface (protein target not named in document) (Homo sapiens); settings: 3' biotin, Ramos cell capture efficiency in microfluidic device
# [2] = test system: CEM cell surface receptor bound by sgc8 (protein not named in document) (Homo sapiens); assay: flow; settings: whole CEM cells
sequence,measurement,setting,value
AACACCGTGGAGGATAGTTCGGTGGCTGTTCAGGGTCTCCTCCCGGTG [AuNP-TD05],activity,[1]; 5' thiol-(PEG)24 on gold nanoparticle,90 % capture
AACACCGTGGAGGATAGTTCGGTGGCTGTTCAGGGTCTCCTCCCGGTGTTTTTTTTTT [TD05],activity,"[1]; 3' T10 linker, aptamer alone",41 % capture
ATCTAACTGCTGCGCCGCCGGGAAAATACTGTACGGTTAGA [AuNP-sgc8],Kd,"[2]; 5' thiol-(PEG)24 on 13.6 nm gold nanoparticle, about 95 aptamers per particle, 3' biotin or FITC, multivalent gold nanoparticle conjugate",0.1 nM
ATCTAACTGCTGCGCCGCCGGGAAAATACTGTACGGTTAGATTTTTTTTTT [sgc8],Kd,"[2]; 3' T10 linker as printed in Table 1, 3' biotin for capture, FITC instead of biotin for flow",3.9 nM
